Laboratory results published in US20190262327A1, “COMBINATION OF A BACE INHIBITOR AND AN ANTIBODY OR ANTIGEN-BINDING FRAGMENT FOR THE TREATMENT OF A DISORDER ASSOCIATED WITH THE ACCUMULATION OF AMYLOID BETA” (ASTRAZENECA AB, priority 2016, published 2019).

Legend:
amyloid beta 1-42 = molecular target: T1, amyloid beta 1-42 (Rattus norvegicus, UniProt P08592); assay: Total amyloid beta 1-42 in rat CSF (PK-PD study in normal rats); format: in vivo
T1 construct: Measurement of free Amyloid beta 1-42 peptide in rat CSF; from tissue; host or cells: CSF and brain homogenate of Sprague-Dawley rats
T1 sequence (P08592 672-713 limits assumed): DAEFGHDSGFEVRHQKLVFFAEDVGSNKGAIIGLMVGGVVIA
Description: (§1) The ability of antibody Abet0144-GL to sequester amyloid beta 1-42 was investigated in a PK-PD study in normal rats. Rats were intravenously administered Abet0144-GL (10 or 40 mg/kg) or vehicle weekly for 2 weeks (on days 0 and 7), and sacrificed a week after the 2nd dose. CSF was sampled for free and total amyloid beta 1-42, and brain was sampled for total amyloid beta 1-42 measurement. Free and total amyloid beta 1-42 levels were measured using assays described above.

[1] = molecular target: T2, human Amyloid beta 1-42 peptide (Homo sapiens, UniProt P05067); assay: Surface Plasmon Resonance kinetic profiling of purified scFv (ProteOn); format: binding; conditions: biotinylated human Amyloid beta 1-42 on streptavidin chip
T2 construct: biotinylated human Amyloid beta 1-42 peptide (rpeptide, USA; cat: A1117); purchased rPeptide, USA A1117; host or cells: synthetic peptide
T2 sequence (P05067 672-713): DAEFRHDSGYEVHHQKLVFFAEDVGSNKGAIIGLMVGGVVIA
Text: Surface Plasmon Resonance was used to analyse the purified scFv clones that had shown significant improvement in binding affinity for human Amyloid beta 1-42 peptide over the parent sequence, Abet0144-GL, in the HTRF™ epitope competition assay (sections 1.3-1.6). Briefly, the ProteOn Protein Interaction Array System (BioRad, USA) was used to assess the kinetic parameters of the interaction between each purified scFv and synthetically produced human Amyloid beta 1-42 peptide. These experiments were performed essentially as described by Karlsson et al. (Karlsson et al., 1991).
The affinity of binding between each test scFv and human Amyloid beta 1-42 was estimated using assays in which biotinylated synthetic human Amyloid beta 1-42 peptide (rPeptide, USA; cat: Al 117) was non-covalently bound via a biotin/streptavidin interaction to a proprietary streptavidin chip (NTA 176-5021) at five different surface densities. The chip surface was regenerated between cycles by a single 60 second injection of 10 mM Glycine pH 2.0 to remove scFv bound to the peptide.
Each scFv at 100-200 nM was sequentially passed over the peptide surface for a sufficient amount of time to observe sensorgrams that could be fitted to an appropriate binding model with confidence. An irrelevant scFv blank was subtracted from the main dataset to reduce the impact of any buffer artefacts or non-specific binding effects. An appropriate binding model was then fitted to the data.

[2] = molecular target: T3, Amyloid beta 1-42 peptide (Rattus norvegicus, UniProt P08592); assay: Free Amyloid beta 1-42 peptide in rat CSF (immunoprecipitation + ELISA); format: in vivo; conditions: normal rats, 10 mg/kg i.v. weekly for 2 weeks; not significant
T3 construct: Measurement of free Amyloid beta 1-42 peptide in rat CSF; from tissue; host or cells: CSF and brain homogenate of Sprague-Dawley rats
T3 sequence (P08592 672-713 limits assumed): as the sequence (P08592 672-713 limits assumed) above
Description: (§2) Eight-week old male albino Harlan Sprague-Dawley rats (n=8-12) received a single dose of Abet0380-GL IgG1-TM antibody by intravenous injection with a dosing vehicle of 25 mM Histidine, 7% Sucrose, 0.02% p80 surfactant, pH 6.0 at 5 ml/kg. Dosing solutions were made just before dosing. Animals were anaesthetized at the time indicated and cerebrospinal fluid (CSF) was aspirated from the cistema magna. CSF samples were centrifuged for 10 minutes at approximately 3000× g at 4° C. within 20 minutes of sampling to remove cells or debris. Samples were then frozen on dry ice and stored at −70° C. for subsequent analysis.
Measurement of free Amyloid beta 1-42 peptide in rat CSF was conducted using immunoprecipitation to remove Abet0380-GL bound Amyloid beta 1-42 peptide, followed by analysis by a commercial ELISA kit obtained from Invitrogen. Briefly, a solution of protein A beads (Dynabeads® Protein A; Invitrogen, UK; cat: 100-02D) was added to a 96 well non-skirted plate (polypropylene 0.2 ml; VWR International, UK; cat: 10732-4828) and washed twice with TBST (50 mM TBS; Sigma, UK; cat: T6664 plus 0.1% Tween20) using a magnet (DynaMag™ 96 side; Invitrogen, UK; cat: 123.31 D) to separate the beads from the solution. Thawed rat CSF samples (40 μl) were added to each well and incubated at […] with tilt rotation for 1 hour. The beads were then pelleted using the magnet and 30 μl of immunoprecipitated CSF samples were transferred to a 96 well plate from the ELISA kit (mouse Amyloid beta (1-42) colorimetric ELISA kit; Invitrogen, UK; cat: KMB3441) with 70 μl of the Standard Diluent Buffer already added (supplemented with protease inhibitor; Roche, UK; cat: 11836153001). Calibration standard samples were added to the plate in duplicate and the plate was incubated for 2 hours at room temperature with shaking. The plate was washed 4 times with 400 µl of wash buffer, 100 μl of the detection antibody solution was added to each well and the plate was incubated for 1 hour at room temperature with shaking. Again, the plate was washed 4 times with 400 μl of wash buffer, 100 μl of the secondary antibody working solution was added to each well and the plate was incubated for 30 minutes at room temperature with shaking. Finally, the plate was washed 4 times with 400 μl of wash buffer, 100 μl of stabilized Chromogen was added to each well and the plate was incubated for 30 minutes at room temperature in the dark. To stop the reaction, 100 μl of Stop Solution was added to each well and the plate was read within 2 hours at an absorbance of 450 nm. Single CSF samples were analyzed and data analysis was performed using Prism 4 (GraphPad, USA) with one-way ANOVA on log transformed data without adjustment for multiple comparisons.
To further investigate the effect of the Abet0380-GL IgG1-TM antibody in vivo, rats were administered weekly doses of 0.25, 0.5, 1, 5 or 10 mg/kg over 14 days. Animals were euthanized 168 hours after the second dose to measure levels of free Amyloid beta 1-42 peptide in CSF as well as total Amyloid beta 1-42 or 1-40 peptides in brain tissue.
as §1, with “CSF was sampled for free and total amyloid beta 1-42, and brain was sampled for total amyloid beta 1-42 measurement.” left out

[3] = molecular target: T3, Amyloid beta 1-42 peptide; assay: Total Amyloid beta 1-42 peptide in rat brain homogenates (ELISA); format: in vivo; conditions: normal rats
Description: as §2
Animals were sacrificed by decapitation, brain tissue was dissected and Amyloid beta peptides were extracted from brain tissue in diethylamine (DEA; Fluka. Sigma. UK; cat: 31729). Briefly, frozen brain tissue was homogenized in 0.2% DEA and 50 mM NaCl (Merck, USA: cat: 1.06404.1000). Brain homogenates were ultracentrifuged at 133,000×g, for 1 hour. Recovered supernatants were neutralized to pH 8.0 with 2 M Tris-HCl (TRIZMA®-hydrochloride; Sigma, UK; cat: 93363) and stored at −70° C. until analysis. Animal experimentations were performed in accordance with relevant guidelines and regulations provided by the Swedish Board of Agriculture. The ethical permission was provided by an ethical board specialized in animal experimentations: the Stockholm Södra Animal Research Ethical Board.
Measurement of total (free and Abet0380-GL bound) Amyloid beta 1-42 peptide in rat brain homogenates was performed using modifications of the mouse Amyloid beta (1-42) colorimetric ELISA kit (Invitrogen, UK: cat: KMB3441). […] To stop the reaction, 100 μl of Stop Solution was added to each well and the plate was read within 2 hours at an absorbance of 450 nm. […]
The ability of antibody Abet0144-GL to sequester amyloid beta 1-42 was investigated in a PK-PD study in normal rats. […] Free and total amyloid beta 1-42 levels were measured using assays described above.

[4] = 10 mg/kg i.v. weekly for 2 weeks
[5] = 40 mg/kg i.v. weekly for 2 weeks

B1: Abet0144-GL: parent anti-Aβ antibody clone, germlined; VH domain SEQ ID NO: 20 and VL domain SEQ ID NO: 29 (antibody, listed as Homo sapiens, V domains shown)
VH: EVQLLESGGGLVQPGGSLRLSCAASGFTFSVYTMWWVRQAPGKGLEWVSVIGSSGGTTVYADSVKGRFTISRDNSKNTLYLQMNSLRAEDTAVYYCAREWMDHSRPYYYYGMDVWGQGTLVTVSS
VL: SYELTQPPSVSVSPGQTASITCSGHNLEDKFASWYQQKPGQSPVLVIYRDDKRPSGIPERFSASNSGHTATLTISGTQAMDEADYYCQAQDSTTRVFGGGTKLTVL
modifications: /note=“Abet0144-GL”
- increase of total amyloid beta 1-42 in CSF (amyloid beta 1-42; [4]): 38%
- increase of total amyloid beta 1-42 in CSF (amyloid beta 1-42; [5]): 139%
- ka [1]: 116000 M⁻¹ s⁻¹
- kd [1]: 0.0066 s⁻¹
- increase of free amyloid beta 1-42 in CSF compared with vehicle [2]: 5%
- increase of total amyloid beta 1-42 in brain tissue [3, 4]: 16%
- increase of total amyloid beta 1-42 in brain tissue [3, 5]: 50%
